Assay results taken from patent publication US5981720.
Blank lines part the entries; values can stand above or below the binder they belong to. No end group written: not given here. *: point of attachment. βGlcNAc = CC(=O)N[C@@H]1[C@@H](O)[C@H](O)[C@@H](CO)O[C@H]1*

Columns and labels:
[1] = target: yeast alpha-glucosidase (yeast)
[2] = target: yeast alpha-glucosidase (yeast); remark: listed apart in the source
[3] = target: yeast alpha-glucosidase (yeast); settings: scale: decrease of umole of glucose production from maltose per microgram of protein per hour
[4] = target: yeast alpha-glucosidase (yeast); remark: listed apart in the source

Binder: GGNK (acetylglucosamine cleaved off the asparagine with N-acetylglucosaminidase) [glycopeptide treated with N-acetylglucosaminidase]
inhibitory effect on alpha-glucosidase activity (% of inhibition lost) [1]: 20

B2: CON-1 (protein)
chain: SPPGKPQGPPPQGGNQPQGPPPPPGKPQGPPPQGGNKPQGPPPPGKPQGPPPQGDNKSQSARSPPGKPQGPPPQGGNQPQGPPPPPGKPQGPPPQGGNKSQGPPPPGKPQGPPPQGGSKSRSSR
modifications: glycoprotein; glycosylation occurs at one N-linked site (acetylglucosamine on asparagine of glycine-glycine-asparagine-lysine)
Specific Inhibitory Activity [3]: 2810

Binder: GGN(βGlcNAc)K [synthetic glycopeptide Gylcyl-glycl-(NB-2-(acetylamino)-deoxy-2-B-pyranosyl)-asparaginyl-lysine]
inhibitory effect on alpha-glucosidase activity [4]: 90%

Second part, the binder after the results:

inhibitory effect on alpha-glucosidase activity (% increase in inhibitory effect) [1]: 50
Binder: GGN(βGlcNAc)K(pyridoxal 5‑phosphate) [pyridoxal 5-phosphate modified glycopeptide]

alpha-glucosidase inhibition assay [2]: 50 percent
B1: PNGase treated CON-1 (protein)
chain: SPPGKPQGPPPQGGNQPQGPPPPPGKPQGPPPQGGNKPQGPPPPGKPQGPPPQGDNKSQSARSPPGKPQGPPPQGGNQPQGPPPPPGKPQGPPPQGGNKSQGPPPPGKPQGPPPQGGSKSRSSR
modifications: carbohydrate moiety removed with PNGase
